Where no end group is shown, it is not given here.
What was measured:
PSMA Fab [1] = biological target: T1, PSMA Fab; assay: clonal phage ELISA on biotinylated PSMA Fab captured on neutravidin, anti-M13 HRP detection;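 note: crude clonal phage supernatants added to wells pretreated with PSMA antigen in blocking buffer or with blocking buffer only, then briefly incubated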
T1 construct: also called Anti-PSMA Fab; 006 PSMA Fab
Description: (§1) Clonal phage were harvested as crude supernatants and screened via standard ELISAs. […] Prior to the addition of clonal phage. wells were incubated with blocking buffer and PSMA antigen or blocking buffer alone. Without washing or aspirating, clonal phage supernatants were then added to the wells and incubated for a short time. Wells were then washed followed by detection of bound phage using a horse radish conjugated anti-M13 antibody.

PSMA Fab [2] = biological target: T1, PSMA Fab; assay: clonal phage ELISA on captured PSMA Fab pre-incubated with PSMA antigen (competitor: PSMA)
Description: as §1

PSMA Fab [3] = biological target: T2, PSMA Fab (biotinylated (site not stated)); assay: clonal phage ELISA; biotinylated PSMA Fab on neutravidin plate; anti-M13 HRP detection; blocking buffer alone
T2 construct: Biotinylated PSMA Fab captured on neutravidin plates in the phage ELISA; also called Anti-PSMA Fab; 006 PSMA Fab

PSMA Fab [4] = biological target: T2, PSMA Fab; assay: clonal phage ELISA; biotinylated PSMA Fab on neutravidin plate pre-incubated with PSMA antigen as competitor; anti-M13 HRP detection;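 note: crude clonal phage supernatants briefly incubated on wells preloaded with PSMA antigen in blocking buffer, or buffer only as control, bound phage detected with HRP-conjugated anti-M13 antibody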
Description: as §1

PSMA Fab [5] = biological target: T3, PSMA Fab; assay: phage ELISA; biotinylated PSMA Fab on neutravidin plate, clonal phage supernatant, anti-M13 HRP; wells pre-incubated with PSMA antigen as competitor
T3 construct: Biotinylated and captured on neutravidin coated plates in the phage ELISA; also called 006 PSMA Fab; Anti-PSMA Fab
Description: as §1

PSMA Fab [6] = biological target: T3, PSMA Fab; assay: phage ELISA; biotinylated PSMA Fab on neutravidin plate, clonal phage supernatant, anti-M13 HRP; no PSMA antigen
Description: as §1

| Binder | Phage binding ELISA signal, Anti-PSMA Fab (PSMA Fab [1]) | Phage binding ELISA signal, Anti-PSMA Fab with PSMA antigen (PSMA Fab [2]) | phage binding ELISA signal (PSMA Fab [5]) | phage binding ELISA signal (PSMA Fab [6]) | further results |
| --- | --- | --- | --- | --- | --- |
| PVKWCVPPWMCAAT (cysteine pairing not given here; also: displayed on bacteriophage by fusion to pIII, Peptide-180 library clone, tested as clonal phage supernatant (peptide fused to the pIII filament of the bacteriophage)) [Phage-2358] | 1.42 | 0.0663 |  |  |  |
| EMNWCIPAWMCEGR [Phage-2437] |  |  |  |  | Phage binding ELISA signal, Anti-PSMA Fab (PSMA Fab [3]): 1.31; Phage binding ELISA signal, Anti-PSMA Fab in presence of PSMA (PSMA Fab [4]): 0.0633 |
| EAKWCIPNWMCEMA [Phage-2438] |  |  |  |  | Phage binding ELISA signal, Anti-PSMA Fab (PSMA Fab [3]): 1.31; Phage binding ELISA signal, Anti-PSMA Fab in presence of PSMA (PSMA Fab [4]): 0.0622 |
| LSNWCVPLWMCEMV (Peptide-180 library clone, tested as clonal phage supernatant (peptide fused to the pIII filament of the bacteriophage)) [Phage-2349] | 1.43 | 0.0796 |  |  |  |
| LWMSCIPPWMCANV (cysteine pairing not given here; also: displayed as fusion to phage pIII, Peptide-180 library clone, tested as clonal phage (peptide fused to pIII)) [Phage-2426] |  |  | 0.137 | 1.33 |  |
| GAIWCIPQWMCAWN (cysteine pairing not given here; also: displayed as fusion to phage pIII) [Phage-2443] |  |  |  |  | Phage binding ELISA signal, Anti-PSMA Fab (PSMA Fab [3]): 1.3; Phage binding ELISA signal, Anti-PSMA Fab in presence of PSMA (PSMA Fab [4]): 0.132 |
| MPKWCTPSWMCAVQ (cysteine pairing not given here; also: displayed as fusion to phage pIII) [Phage-2439] |  |  |  |  | Phage binding ELISA signal, Anti-PSMA Fab (PSMA Fab [3]): 1.31; Phage binding ELISA signal, Anti-PSMA Fab in presence of PSMA (PSMA Fab [4]): 0.0845 |
| SEEWCIPPWMCLGR (Peptide-180 library clone, tested as clonal phage supernatant (peptide fused to the pIII filament of the bacteriophage)) [Phage-2353] | 1.43 | 0.0756 |  |  |  |
| EERWCIPEWMCSRI (Peptide-180 library clone, tested as clonal phage (peptide fused to pIII)) [Phage-2434] |  |  | 0.0557 | 1.32 |  |
| VLKWCTPPWMCWDI (Peptide-180 library clone, tested as clonal phage (peptide fused to pIII)) [Phage-2431] |  |  | 0.123 | 1.32 |  |
| EFKWCIPKWMCMVD (Peptide-180 library clone, tested as clonal phage (peptide fused to pIII)) [Phage-2421] |  |  | 0.0948 | 1.33 |  |
| LMNWCTPAWMCTGF (Peptide-180 library clone, tested as clonal phage supernatant (peptide fused to the pIII filament of the bacteriophage)) [Phage-2344] | 1.43 | 0.0919 |  |  |  |
| GEKWCIPEWMCVTT (Peptide-180 library clone, tested as clonal phage (peptide fused to pIII)) [Phage-2429] |  |  | 0.0637 | 1.32 |  |
| ADRLCIPPWMCEMK (Peptide-180 library clone, tested as clonal phage (peptide fused to pIII)) [Phage-2428] |  |  | 0.0685 | 1.33 |  |
| IDHWCTPAWMCRGF (Peptide-180 library clone, tested as clonal phage supernatant (peptide fused to the pIII filament of the bacteriophage)) [Phage-2352] | 1.43 | 0.0775 |  |  |  |
| VVHWCTPAWMCYDM [Phage-2441] |  |  |  |  | Phage binding ELISA signal, Anti-PSMA Fab (PSMA Fab [3]): 1.3; Phage binding ELISA signal, Anti-PSMA Fab in presence of PSMA (PSMA Fab [4]): 0.0623 |
| PMKWCIPEWMCIAS (Peptide-180 library clone, tested as clonal phage supernatant (peptide fused to the pIII filament of the bacteriophage)) [Phage-2351] | 1.43 | 0.102 |  |  |  |
| SENWCIPNWMCSGL (Peptide-180 library clone, tested as clonal phage supernatant (peptide fused to the pIII filament of the bacteriophage)) [Phage-2347] | 1.43 | 0.0725 |  |  |  |
| LHKLCTPTWMCEGF [Phage-2442] |  |  |  |  | Phage binding ELISA signal, Anti-PSMA Fab (PSMA Fab [3]): 1.3; Phage binding ELISA signal, Anti-PSMA Fab in presence of PSMA (PSMA Fab [4]): 0.0712 |

| Binder | Phage binding ELISA signal, Anti-PSMA Fab (PSMA Fab [1]) | Phage binding ELISA signal, Anti-PSMA Fab with PSMA antigen (PSMA Fab [2]) | phage binding ELISA signal (PSMA Fab [5]) | phage binding ELISA signal (PSMA Fab [6]) | further results |
| --- | --- | --- | --- | --- | --- |
| DENWCKPLWMCEGF (Peptide-180 library clone, tested as clonal phage (peptide fused to pIII)) [Phage-2425] |  |  | 0.0991 | 1.33 |  |
| NDHWCIPPWMCAPY (cysteine pairing not given here; also: displayed on bacteriophage by fusion to pIII, Peptide-180 library clone, tested as clonal phage supernatant (peptide fused to the pIII filament of the bacteriophage)) [Phage-2354] | 1.42 | 0.0707 |  |  |  |
| LVNWCTPPWMCWHD (Peptide-180 library clone, tested as clonal phage (peptide fused to pIII)) [Phage-2424] |  |  | 0.0827 | 1.33 |  |
| EYKWCVPIWMCAYD (cysteine pairing not given here; also: displayed as fusion to phage pIII, Peptide-180 library clone, tested as clonal phage (peptide fused to pIII)) [Phage-2427] |  |  | 0.0826 | 1.33 |  |
| GINWCTPSWMCTGF (Peptide-180 library clone, tested as clonal phage (peptide fused to pIII)) [Phage-2435] |  |  | 0.0711 | 1.31 |  |
| WTNTCIPMWMCEGF (Peptide-180 library clone, tested as clonal phage (peptide fused to pIII)) [Phage-2422] |  |  | 0.0808 | 1.33 |  |
| MPKWCTPSWMCSPS [Phage-2436] |  |  |  |  | Phage binding ELISA signal, Anti-PSMA Fab (PSMA Fab [3]): 1.31; Phage binding ELISA signal, Anti-PSMA Fab in presence of PSMA (PSMA Fab [4]): 0.0576 |
| VPKWCTPTWMCIHM (Peptide-180 library clone, tested as clonal phage supernatant (peptide fused to the pIII filament of the bacteriophage)) [Phage-2356] | 1.42 | 0.0649 |  |  |  |
| EVKWCIPNWMCAAS (cysteine pairing not given here; also: displayed as fusion to phage pIII, Peptide-180 library clone, tested as clonal phage (peptide fused to pIII)) [Phage-2432] |  |  | 0.077 | 1.32 |  |
| WDRLCIPPWMCDVM (Peptide-180 library clone, tested as clonal phage supernatant (peptide fused to the pIII filament of the bacteriophage)) [Phage-2346] | 1.43 | 0.0803 |  |  |  |
| LTNWCTPQWMCLGF (Peptide-180 library clone, tested as clonal phage (peptide fused to pIII)) [Phage-2423] |  |  | 0.0731 | 1.33 |  |
| FDMLCNPKWMCEGF (Peptide-180 library clone, tested as clonal phage supernatant (peptide fused to the pIII filament of the bacteriophage)) [Phage-2345] | 1.43 | 0.0643 |  |  |  |
| MEKWCTPSWMCQWM (Peptide-180 library clone, tested as clonal phage supernatant (peptide fused to the pIII filament of the bacteriophage)) [Phage-2348] | 1.43 | 0.0828 |  |  |  |
| EIKWCTPPWMCTIG (Peptide-180 library clone, tested as clonal phage (peptide fused to pIII)) [Phage-2430] |  |  | 0.102 | 1.32 |  |
| AERWCIPSWMCELA (Peptide-180 library clone, tested as clonal phage supernatant (peptide fused to the pIII filament of the bacteriophage)) [Phage-2357] | 1.42 | 0.0756 |  |  |  |
| MDRWCIPEWMCARH (cysteine pairing not given here; also: displayed on bacteriophage by fusion to pIII, Peptide-180 library clone, tested as clonal phage supernatant (peptide fused to the pIII filament of the bacteriophage)) [Phage-2350] | 1.43 | 0.0537 |  |  |  |
| FENWCTPSWMCSGF (Peptide-180 library clone, tested as clonal phage supernatant (peptide fused to the pIII filament of the bacteriophage)) [Phage-2355] | 1.42 | 0.0807 |  |  |  |
| PAKWCVPSWMCSEI [Phage-2440] |  |  |  |  | Phage binding ELISA signal, Anti-PSMA Fab (PSMA Fab [3]): 1.31; Phage binding ELISA signal, Anti-PSMA Fab in presence of PSMA (PSMA Fab [4]): 0.0676 |
| GDNWCKPAWMCRDM (Peptide-180 library clone, tested as clonal phage (peptide fused to pIII)) [Phage-2433] |  |  | 0.0728 | 1.32 |  |

— patent US20260242478A1 (published 2026)
